Measured values published in the nanobody polyreactivity screen of Harvey et al. (2022).

experiment: yeast display, Sf9 membrane polyspecificity reagent, FACS + sequencing; frameworks hold sequencing errors
Procedure, shortened: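 Galactose induction of a Saccharomyces cerevisiae BJ5465 synthetic nanobody display library ran 36–48 hours. The cells were then stained for 1 hour at 4 °C with 10% biotinylated, detergent-solubilized Sf9 membrane reagent, pulled down on streptavidin microbeads and FACS-sorted into low and high (top ~1%) gates on expression and reagent-binding fluorescence. Labels for polyreactivity follow the gate of origin.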

Which “polyreactivity (PSR sort gate)” value does the source give for “QVQLVESGGGLVQAGGSLRLSCAASGSTFWDYAMGWYRQAPGKERELVAAISTSGGSTYYADSVKGRFTISRDNAKNTVYLQMNSLKPEDTAVYYCAAGRVRRRVWYNYWGQGTQVTVSS” here?
The value was “high polyreactivity”.

Which “polyreactivity (PSR sort gate)” value does the source give for “QVQLVESGGGLVQAGGSLRLSCAASGSTFWDYAMGWYRQSPGKERELVAGITYSGTSTYYADSVKARFTISRDHAKNTVYLQMNSLKPEDTAVYYCAAESQAVGWWTPGYDYWGQGTQVTVSS” here?
The value was “low polyreactivity”.

Which “polyreactivity (PSR sort gate)” value does the source give for “QVQLVESGGGLVQAGGSLRLSCAASGSTFWFNAMGGSRQAPGKERELVAAIPSRGGYTYYADSVKGRFTISRDHAKNTVYLQMNSLKPEDTAVYYCAADYRYSSRKVFHFDYWGQGTQVTVSS” here?
The value was “low polyreactivity”.

With “QVQLVESGGGLVQAGGSLRLSCAASGSTFWFNDMGWYRQAPGKEREFVAAISSIGGSTYYADSVKGRFTISRDNAKNNVNLQMNSLKPEDTAVYYCAVEVVRVYRYDYWGQGTQVTVSS” as the sequence, how does the “polyreactivity (PSR sort gate)” value read?
The value was “low polyreactivity”.

For “QVQLVESGGGLVQAGGSLRLSCAASGSTFWFYAMGWYRQAPGTERELVAVISNSGSTYYADSVKGRFTISRDNAKNTVYLQMNSLKPEDTEVYYCNKDGGGDSYWYDYWGQGTQVTVSS”, which “polyreactivity (PSR sort gate)” value is on record?
Its value is “low polyreactivity”.

For “QVQLVESGGGLVQAGGSLRLSCAASGSTFWGNAMGWYRQAPGKERELVAAIDWSGGRTYYADSVKGRFTISRDNAKNTVYLQMNSLKPEDTAVYYCATRAWRGYGPYDYWGQGTQVTVSS”, which “polyreactivity (PSR sort gate)” value is on record?
Its value is “high polyreactivity”.

For “QVQLVESGGGLVQAGGSLRLSCAASGSTFWGNAMGWYRQAPGKERELVAAISNGGSTNYADSVKGRFTISRDNAKNTVYLQMNSLKPEDTAVYYCAADGHTSNGVSLHGYWGQGTQVTVSS”, which “polyreactivity (PSR sort gate)” value is on record?
The value was “low polyreactivity”.

Which “polyreactivity (PSR sort gate)” value does the source give for “QVQLVESGGGLVQAGGSLRLSCAASGSTFWGNAMGWYRQAPGKERELVAAISWIGGGTYYADSVKGRFTISRDNAKNTVYLQMNSLKPEDTAVYYCAAKIFIRVHYYSYRMYYWGQGTQVTVSS” here?
The value was “low polyreactivity”.

Which “polyreactivity (PSR sort gate)” value does the source give for “QVQLVESGGGLVQAGGSLRLSCAASGSTFWIYAMGWYIQAPGTERELVAAITLRSGSTYYADSVKGRFTISRDNAKNTVYLQMISLKPEDTAVYYCATDSWGVDRPNYNYWGQGTQVTVSS” here?
The value was “low polyreactivity”.

Which “polyreactivity (PSR sort gate)” value does the source give for “QVQLVESGGGLVQAGGSLRLSCAASGSTFWKYVIGWYRQEPGKERELVAAITSRGGSTYADSVKGRFTISRDNAKNTVYLQMNSLKPEDTAVYYCAATKFWYYGYDYWGQGTQVTVSS” here?
The value was “low polyreactivity”.

For “QVQLVESGGGLVQAGGSLRLSCAASGSTFWLYAMGWYRQAPGKERELVASISSRGGSTYYADSVKGRFTISRDNAKNTVYLQMNSLKPEDTAVYYCAAKDIRYDDDYWGQGTQVTVSS”, which “polyreactivity (PSR sort gate)” value is on record?
The value was “low polyreactivity”.

Which “polyreactivity (PSR sort gate)” value does the source give for “QVQLVESGGGLVQAGGSLRLSCAASGSTFWTYTMGWYRQAPGKERELVAVISSTGGDTYYADSVKGRFTISRDNAKNTVYLQMNSLKPEDTAVYYCAARIRRWYAGYGGYYWGQGTQVTVSS” here?
The value was “high polyreactivity”.

Which “polyreactivity (PSR sort gate)” value does the source give for “QVQLVESGGGLVQAGGSLRLSCAASGSTFWVYAMGWYRQAPGKERELVASITFSGSSTYYADSVKGRFTISRDNAKNTVYLQMNSLKPEDTAVYYCAAGEGGDRSRGYLSQYGYWGQGTQVTVSS” here?
Its value is “low polyreactivity”.

For “QVQLVESGGGLVQAGGSLRLSCAASGSTFWYAMGWYRQAPGKERELVAAITARGGRTYYADSVKGRFTISRDNAKHTVYLQLISLKPEDTAVYYCARLSYAGGQWIIGKYDYWGQGTQVTVSS”, which “polyreactivity (PSR sort gate)” value is on record?
The value was “high polyreactivity”.

Which “polyreactivity (PSR sort gate)” value does the source give for “QVQLVESGGGLVQAGGSLRLSCAASGSTFWYYALGWYRQAPGKERELVAAIRWSDGSTYYADSVKGRFTSSRDNAKNTVYLQMNSLKPEDTAVYYCEYYYWGQGTQVTVSS” here?
Its value is “low polyreactivity”.

With “QVQLVESGGGLVQAGGSLRLSCAASGSTFWYYAMGWSRQAPGKERELVADITYSGVSTYYADSVKGRFTISRDNAKNTVYLQMNSLKPEDTAVYYCNAVWGSVKGYSGYYYWGPGTQVTVSS” as the sequence, how does the “polyreactivity (PSR sort gate)” value read?
Its value is “low polyreactivity”.

Which “polyreactivity (PSR sort gate)” value does the source give for “QVQLVESGGGLVQAGGSLRLSCAASGSTFWYYAMGWYRQAPGKEREFVAAITTSAGRTYDADSVKGRFTISRDHAKNTVYLQMNSLKPEDTAVYYCAAEPRQYWEYNYWGQGTQVTVSS” here?
Its value is “high polyreactivity”.

With “QVQLVESGGGLVQAGGSLRLSCAASGSTFWYYAMGWYRQAPGKERELVAGITQSGGSTYYADSVKGRFTISRDNEKNTVYLQMNRLKPEDTAVYYCAKDGRVSGDFDYWGQGTQVTVSS” as the sequence, how does the “polyreactivity (PSR sort gate)” value read?
The value was “low polyreactivity”.

Which “polyreactivity (PSR sort gate)” value does the source give for “QVQLVESGGGLVQAGGSLRLSCAASGSTFWYYAMGWYRQAPGKEREMVATIRWRGGSTYYADSVKGRFTISRDNAKNTLYLQMNSLKPEDTAVYYCAADTWAYVGYYYGFDYWGQGTQVTVSS” here?
The value was “high polyreactivity”.

For “QVQLVESGGGLVQAGGSLRLSCAASGSTFWYYDMGWYRQAPGKERELVAAITSGGRTNYADSVKGRFTISRDNAKNTVYLQMNSLKPEDTAVYYCARGPLSHTALYWRGRYNYWGQGTQVTVSS”, which “polyreactivity (PSR sort gate)” value is on record?
Its value is “high polyreactivity”.

For “QVQLVESGGGLVQAGGSLRLSCAASGSTFWYYTMGWYRPAPGKERELVAGITSGGSTYYADSVKGRFTISRDYANNTVYLQMNSLKPEDTAVYYCTFYWYNYWGQGTQVTVSS”, which “polyreactivity (PSR sort gate)” value is on record?
Its value is “high polyreactivity”.
